Laboratory results as given in patent US10266565B2, “Peptide mimetic ligands of polo-like kinase 1 polo box domain and methods of use” (The United States of America, as represented by the …, priority 2011, dated 2019).
Entries after “also recorded” stand apart in the source; their conditions may differ. Where a SMILES comes first, the peptide text is derived from it. Where no end group is shown, it is not given here. [ ]: non-standard residue; d: D form. The star is where a group is joined. His(π-(CH2)8Ph) = N[C@@H](Cc1cncn1CCCCCCCCc1ccccc1)C(=O)O; Abu(3R-Me,4-PO3H2) = C[C@@H](CP(=O)(O)O)[C@H](N)C(=O)O; CH3O(CH2CH2O)7C2H4CO = COCCOCCOCCOCCOCCOCCOCCOCCC(=O)*; pT = C[C@@H](OP(=O)(O)O)[C@H](N)C(=O)O; PEG = not defined here

Columns and labels:
[1] = test system: HeLa cells; assay: Direct treatment of cultured HeLa cells (mitotic arrest, apoptotic cell death, Plk1 localization); format: cell-based; conditions: 200 μM
[2] = target: T1, Plk1 (Homo sapiens, UniProt P53350); assay: Peptide pull-down assay with bead-immobilized peptides, Plk1; format: binding; conditions: for Plk1 binding / precipitation in pull-down, in words: mitotic cell lysates
T1 construct: we used total lysates prepared from mitotic HeLa cells; endogenous in cells; host or cells: mitotic (nocodazole-arrested) HeLa cells
Experimental: For Plk1 pull-down assays with immobilized peptides, we used total lysates prepared from mitotic HeLa cells. […] Cells treated with 200 ng/ml of nocodazole for 16 h were lysed in TBSN buffer {20 mM Tris-Cl (pH8.0), 150 mM NaCl, 0.5% NP-40, 5 mM EGTA, 1.5 mM EDTA, 0.5 mM Na3VO4, 20 mM p-nitrophenyl phosphate, and protease inhibitor cocktail (Roche, Nutley, N.J.)}, and then clarified by centrifugation at 15,000×g for 20 min at 4° C. The resulting lysates were incubated with bead-immobilized peptides (40 μM per binding) for 2 h, precipitated, washed, and then boiled in sodium dodecyl sulfate (SDS) sample buffer to elute the associated proteins. Samples were separated by 10% SDS-polyacrylamide gel electrophoresis (PAGE), and then either stained with silver or transferred to PVDF membrane for immunoblotting analysis with anti-Plk1 antibody using the enhanced chemiluminescence (ECL) detection system (Pierce). […]

[3] = target: Plk1 PBD-p-Cdc25C interaction (Homo sapiens, UniProt P53350); assay: Competition of the PBD-p-Cdc25C interaction in mitotic HeLa lysates; format: binding; conditions: GST-PBD
Experimental: For p-Cdc25C pull-down assays, either bead-bound GST-PBD or the corresponding GST-PBD(H538A K540M) mutant was incubated with mitotic HeLa lysates in TBSN buffer supplemented with 2 mM DTT. To test the ability of the indicated peptides to compete the PBD-p-Cdc25C interaction, lysates were pre-incubated with GST-PBD for 1.5 h prior to the addition of the indicated peptides. Lysates were then incubated for additional 1.5 h, washed in the binding buffer, and then analyzed. For competition of the interaction between p-Cdc25C and endogenous Plk1, mitotic lysates were prepared in TBSN and incubated with the indicated peptides for 1 h before subjecting to immunoprecipitation with anti-Plk1 antibody.

[4] = target: Plk1 PBD (Homo sapiens, UniProt P53350); assay: Isothermal titration calorimetry with recombinant Plk1 PBD; format: binding
[5] = target: T2, Plk2 (Mus musculus, UniProt P53351, K108M); assay: Peptide pull-down assay with bead-immobilized peptides, Plk2; format: binding
T2 construct: expressed in transfected cells
Experimental: After incubating the cell lysates prepared in TBSN buffer {20 mM Tris-Cl (pH8.0), 150 mM NaCl, 0.5% Np-40, 5 mM EGTA, 1.5 mM EDTA, 20 mM p-nitrophenylphosphate and protease inhibitor cocktail (Roche, Nutley, N.J.)} with the bead-immobilized ligands for 2 h at 4° C., the ligand-associating proteins were precipitated, washed, boiled in sodium dodecyl sulfate (SDS) sample buffer, separated by 8% SDS-polyacrylamide gel electrophoresis (PAGE), and then subjected to immunoblotting analysis with anti-Flag antibody and the enhanced chemilunimescence (ECL) detection system (Pierce). The same membrane was also stained with Coomassies (CBB). Signal intensities were quantified using Image J program.
To investigate the binding specificity of p-T78 peptides to various Plks, Flag-Plk1 (K82M), Flag-Plk2(K108M)3 or Flag-Plk3(K52R) (a gift of Wei Dai, New York University School of Medicine, NY) construct was first transfected into HeLa cells. Cellular lysates were prepared as above, mixed, and then incubated in TBSN buffer with the immobilized peptides indicated.

[6] = target: T3, Plk2 PBD (Homo sapiens, UniProt Q9NYY3); assay: Isothermal titration calorimetry with recombinant Plk2 PBD; conditions: titrated into Plk2 PBD
T3 sequence (Q9NYY3 373-685): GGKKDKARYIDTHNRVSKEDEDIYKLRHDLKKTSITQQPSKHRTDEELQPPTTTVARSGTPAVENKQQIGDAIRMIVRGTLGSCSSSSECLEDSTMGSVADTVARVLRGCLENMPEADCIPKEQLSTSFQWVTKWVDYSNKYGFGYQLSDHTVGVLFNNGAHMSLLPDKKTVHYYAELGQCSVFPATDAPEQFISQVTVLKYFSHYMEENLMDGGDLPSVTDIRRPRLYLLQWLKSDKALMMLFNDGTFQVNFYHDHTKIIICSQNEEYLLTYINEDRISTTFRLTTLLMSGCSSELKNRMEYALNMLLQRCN

[7] = test system: HeLa cells; assay: Microinjection of peptides into HeLa cells; format: cell-based; conditions: for Plk1 localization at centrosomes and kinetochores: microinjection; for mitotic arrest / cell cycle effect, in words: peptide introduced into the cells
Experimental: HeLa cells were cultured as subconfluent monolayers under the conditions recommended by American Type Culture Collection (Manassas, Va.). […] No mitotic exit was observed during the period of 10 min BMI-1026 treatment. For microinjection experiments with the Pmab-containing mimetic peptides, cells were arrested for 16 h with 2.5 mM thymidine (Sigma) and released into fresh medium. Two hours after release from the S phase block, the indicated peptides (2.5 mM stock in PBS) were microinjected into the cells using Eppendorf® Transjector 5246 (Eppendorf®, Westbury, N.Y.) at the 150 hPa pressure level and the 0.5 second injection time. All the cells in a single grid were injected and then further incubated to monitor cell cycle progression. For microinjection experiments with the F2Pmab-containing mimetic peptides, cells were arrested with 2.5 mM thymidine for 16 h twice with a 9 h release interval, and then released into fresh medium. Seven hours after release from the G1/S phase block, the indicated peptides (4 mM stock in PBS) were microinjected similarly as above. Where indicated, peptides containing the final concentration of 30 ng/μl of pEGFP-C1 vector (Clontech®, Mountain View, Calif.) were used to visualize the injected cells.
Four hours after microinjection, cells were fixed and subjected to immunostaining analyses as described below.
Similar methods were used for the experiments shown in FIG. 16 using the peptides indicated. HeLa cells were arrested at the G1/S boundary by double thymidine treatment and released into fresh medium. […] Co-injected EGFP plasmid provided a convenient marker to identify the microinjected cells.
Indirect immunostaining was carried out as described previously (5) using anti-Plk1 antibody (Santa Cruz Biotechnologies, Santa Cruz, Calif.) and anti-CREST antiserum (Cortex Biochem, San Leandro, Calif.). All the appropriate secondary antibodies were purchased from Jackson ImmunoResearch Laboratories, Inc. (West Grove, Pa.). Biotinylated F2Pmab-positive cells were detected by co-staining with FITC-conjugated Streptavidin (Invitrogen®, Carlsbad, Calif.). Chromosomes were visualized with 4′,6-diamidino-2-phenylindole (DAPI) (Sigma). Digital images were collected with a Zeiss LSM510 confocal microscope. For the quantification of the fluorescence signal intensities, images of unsaturated fluorescence signals were acquired with the same laser intensity at 512×512 pixels and 12-bit resolution. Fluorescence intensities for localized signals were determined after subtracting the background signal intensities using Zeiss AIM confocal software.

[8] = target: recombinant Plk1 PBD (full length PBD, calorimetry) (UniProt P53350); assay: ITC, 25 C; 5-mer LHSpTA (SEQ ID NO: 3)
[9] = target: T4, Flag-Plk3 (K52R) (UniProt Q9H4B4 40-646, K52R); assay: pull-down with bead-immobilized peptide, mixed Flag-Plk1/2/3 lysates (293T)
T4 construct: In lysates of transfected cells

[10] = target: Plk1 (endogenous, HeLa cells) (UniProt P53350); assay: pull-down with bead-immobilized peptide, mitotic HeLa lysate
[11] = target: Plk1 PBD (construct and assay format not stated at these places) (UniProt P53350); assay: assay not given
Chain of Plk1 PBD (construct and assay format not stated at these places) (P53350 326-603 limits assumed): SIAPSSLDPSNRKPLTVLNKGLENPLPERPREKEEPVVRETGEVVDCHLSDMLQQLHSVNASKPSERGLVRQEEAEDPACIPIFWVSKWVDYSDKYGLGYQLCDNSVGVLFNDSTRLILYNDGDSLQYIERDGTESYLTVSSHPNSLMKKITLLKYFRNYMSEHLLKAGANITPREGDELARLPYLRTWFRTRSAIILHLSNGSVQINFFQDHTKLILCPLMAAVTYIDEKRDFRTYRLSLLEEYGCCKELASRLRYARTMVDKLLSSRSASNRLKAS

Chain of Plk1 PBD-p-Cdc25C interaction (P53350 326-603 limits assumed): as above
Chain of Plk1 PBD (P53350 326-603): as the sequence (P53350 326-603 limits assumed) above
T1 sequence (P53350 2-603): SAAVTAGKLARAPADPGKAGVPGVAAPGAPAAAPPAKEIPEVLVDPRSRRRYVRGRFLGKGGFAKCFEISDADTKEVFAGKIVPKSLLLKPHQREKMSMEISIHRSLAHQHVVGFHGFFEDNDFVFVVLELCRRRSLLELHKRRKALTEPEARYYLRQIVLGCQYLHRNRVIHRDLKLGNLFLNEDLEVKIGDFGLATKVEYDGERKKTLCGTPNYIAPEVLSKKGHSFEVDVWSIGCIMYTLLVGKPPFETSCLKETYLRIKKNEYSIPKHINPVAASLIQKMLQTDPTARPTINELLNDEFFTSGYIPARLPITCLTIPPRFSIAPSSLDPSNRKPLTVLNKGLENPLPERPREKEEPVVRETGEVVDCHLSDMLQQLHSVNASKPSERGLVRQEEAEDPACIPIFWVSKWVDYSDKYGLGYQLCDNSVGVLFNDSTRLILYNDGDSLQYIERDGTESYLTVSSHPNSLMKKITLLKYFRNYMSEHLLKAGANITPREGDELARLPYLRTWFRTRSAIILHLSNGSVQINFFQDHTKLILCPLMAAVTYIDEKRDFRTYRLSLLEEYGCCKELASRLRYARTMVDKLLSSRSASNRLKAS
T4 sequence (Q9H4B4 40-646 K91R): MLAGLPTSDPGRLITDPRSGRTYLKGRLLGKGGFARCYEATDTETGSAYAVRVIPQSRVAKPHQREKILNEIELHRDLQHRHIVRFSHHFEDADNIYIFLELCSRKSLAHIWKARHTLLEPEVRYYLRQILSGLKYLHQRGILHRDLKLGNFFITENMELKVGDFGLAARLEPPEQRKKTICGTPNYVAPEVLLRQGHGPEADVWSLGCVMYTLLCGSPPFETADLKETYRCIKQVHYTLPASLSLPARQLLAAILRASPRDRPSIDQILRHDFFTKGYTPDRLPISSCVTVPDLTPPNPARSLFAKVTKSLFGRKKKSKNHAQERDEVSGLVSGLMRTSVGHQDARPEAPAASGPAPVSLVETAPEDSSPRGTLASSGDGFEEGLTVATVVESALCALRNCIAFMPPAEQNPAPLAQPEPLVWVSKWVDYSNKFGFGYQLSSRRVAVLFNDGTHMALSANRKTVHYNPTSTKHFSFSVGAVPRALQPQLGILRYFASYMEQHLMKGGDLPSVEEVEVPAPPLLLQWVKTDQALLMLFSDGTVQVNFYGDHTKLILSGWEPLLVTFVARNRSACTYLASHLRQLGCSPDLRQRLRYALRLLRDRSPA
T2 sequence (P53351 whole entry K108M): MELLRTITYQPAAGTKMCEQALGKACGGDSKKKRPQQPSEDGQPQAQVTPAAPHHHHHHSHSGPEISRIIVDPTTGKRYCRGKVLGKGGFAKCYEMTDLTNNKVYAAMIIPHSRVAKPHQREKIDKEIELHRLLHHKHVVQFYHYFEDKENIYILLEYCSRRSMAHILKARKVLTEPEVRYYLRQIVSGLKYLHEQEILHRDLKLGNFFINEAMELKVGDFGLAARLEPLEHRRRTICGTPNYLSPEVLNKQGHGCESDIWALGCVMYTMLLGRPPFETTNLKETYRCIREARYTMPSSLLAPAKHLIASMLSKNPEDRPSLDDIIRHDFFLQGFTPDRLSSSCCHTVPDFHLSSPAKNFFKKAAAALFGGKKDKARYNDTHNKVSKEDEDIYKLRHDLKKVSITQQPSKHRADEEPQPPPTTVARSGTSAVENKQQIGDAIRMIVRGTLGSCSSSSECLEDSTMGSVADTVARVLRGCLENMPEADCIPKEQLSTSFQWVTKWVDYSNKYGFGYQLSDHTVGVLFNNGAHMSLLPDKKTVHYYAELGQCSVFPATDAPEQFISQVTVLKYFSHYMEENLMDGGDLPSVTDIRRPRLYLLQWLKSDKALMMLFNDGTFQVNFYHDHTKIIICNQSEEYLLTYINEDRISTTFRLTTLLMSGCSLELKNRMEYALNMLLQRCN
Chain of recombinant Plk1 PBD (full length PBD, calorimetry) (P53350 326-603 limits assumed): as the sequence (P53350 326-603 limits assumed) above
Chain of Plk1 (endogenous, HeLa cells) (P53350 2-603 limits assumed): as the sequence (P53350 2-603) above

COCCOCCOCCOCCOCCOCCOCCOCCC(=O)N1CCC[C@H]1C(=O)N[C@@H](CC(C)C)C(=O)N[C@@H](Cc1cncn1CCCCCCCCc1ccccc1)C(=O)N[C@@H](C)C(=O)N[C@H](C(N)=O)[C@@H](C)CP(=O)(O)O [PEG-4j* (S/A)] ({CH3O(CH2CH2O)7C2H4CO}-PL[His(π-(CH2)8Ph)]A[Abu(3R-Me,4-PO3H2)]-NH2)
Plk1 delocalization and misaligned chromosomes [1]: not | mitotic arrest / apoptotic cell death / cellular response [1]: did not

HSpT: "HSpT lacking both the Pro and Leu residues" (His-Ser-[pT])
Plk1 binding / precipitation in pull-down, in words [2]: did not exhibit any significant level of binding

HSpTAI: "HSpTAI, lacking both Pro and Leu but instead bearing two additional C-terminal residues following the SpT motif" (HS[pT]AI)
Plk1 binding / precipitation in pull-down, in words [2]: bound to Plk1 only weakly

LHSpT: "LHSpT (SEQ ID NO: 14) lacking the N-terminal Pro" (LHS[pT])
disruption of the pre-formed PBD-p-Cdc25C complex [3]: much less effective than PLHSpT; also recorded: disrupted the complex weakly | binding affinity by calorimetry, in words [4]: much lower affinities | weaker binding than PLHSpT ([4]; assay not given): ~50 fold | diminished binding affinity to Plk1 relative to PLHSpT [2]: ~7 fold | Plk1 binding / precipitation in pull-down, in words [2]: bound to Plk1 better than SpTAI

PLQSpT: "mutation of the His-2 to Gln"; "the PLQSpT mutant" of parent PLHSpT (PLQS[pT])
increase of the level of Plk2 binding ([5]; His-2 to Gln mutant versus PLHSpT): 24 fold | initial heats of interaction [6]: ~-1.1 kcal/mol

HSpTA: 4-mer p-T78 peptide "HSpTA (SEQ ID NO: 15)" (HS[pT]A)
disruption of the pre-formed PBD-p-Cdc25C complex [3]: disrupted the complex weakly | binding affinity by calorimetry, in words [4]: much lower affinities | Plk1 binding / precipitation in pull-down, in words [2]: bound to Plk1 better than SpTAI

COCCOCCOCCOCCOCCOCCOCCOCCC(=O)N1CCC[C@H]1C(=O)N[C@@H](CC(C)C)C(=O)N[C@@H](Cc1cnc[nH]1)C(=O)N[C@@H](CO)C(=O)N[C@H](C(N)=O)[C@@H](C)CP(=O)(O)O [PEG-1*]
Plk1 delocalization and misaligned chromosomes [1]: only mild Plk1 delocalization with a moderate level of misaligned chromosomes | mitotic arrest / apoptotic cell death / cellular response [1]: weak but significant level of mitotic arrest

COCCOCCOCCOCCOCCOCCOCCOCCC(=O)N1CCC[C@H]1C(=O)N[C@@H](CC(C)C)C(=O)N[C@@H](Cc1cnc[nH]1)C(=O)N[C@@H](C)C(=O)N[C@H](C(N)=O)[C@@H](C)CP(=O)(O)O [PEG-1* (S/A)] ({CH3O(CH2CH2O)7C2H4CO}-PLHA[Abu(3R-Me,4-PO3H2)]-NH2)
Plk1 delocalization and misaligned chromosomes [1]: not | mitotic arrest / apoptotic cell death / cellular response [1]: not

Pmab(S77A): the S77A mutants of the Pmab- and the F2Pmab-containing peptides (24 and 26, respectively) (PLHA[Abu(3R-Me,4-PO3H2)])
Plk1 localization at centrosomes and kinetochores [7]: not | mitotic arrest / cell cycle effect, in words [7]: not

CSCC[C@H](N)C(=O)N[C@@H](CCC(N)=O)C(=O)N[C@@H](CO)C(=O)N[C@H](C(=O)N1CCC[C@H]1C(=O)N[C@@H](CC(C)C)C(N)=O)[C@@H](C)OP(=O)(O)O [MQSpTPL, reference compound]
Plk2 precipitation as efficiency of Plk1 precipitation ([5]; lysates with similar levels of Plk1, Plk2, Plk3): ~27%

PLHA-Pmab: "a mutation of the invariably required Ser-1 residue to Ala {PLHA-Pmab (SEQ ID NO: 20); in short, Pmab(S77A)}" (PLHA[Abu(3R-Me,4-PO3H2)])
Plk1 binding / precipitation in pull-down, in words [2]: abolished the Plk1 binding

non-phospho T78 peptide: "the respective non-phospho PLHST (SEQ ID NO: 11) control peptide"
Plk1 localization at centrosomes and kinetochores [7]: not | mitotic arrest / cell cycle effect, in words [7]: proceeded through the cell cycle normally

LHSpTAI: "the analogous p-T78 peptide (LHSpTAI (SEQ ID NO: 17))" (LHS[pT]AI)
binding affinity by calorimetry, in words [4]: slightly higher affinities than the 5-mer peptides | Plk1 binding / precipitation in pull-down, in words [2]: equivalent to that of the former

LHSpTA (peptide)
Kd [8]: 450 nM

MLHSpT: "a Pro-4 to Met-4 mutant, MLHSpT (SEQ ID NO: 18)" (MLHS[pT])
Plk1 binding / precipitation in pull-down, in words [2]: greatly diminished level of Plk1 PBD binding

B1: PEG-4j* (peptide)
peptide: {PEG}-PLH(Ph‑(CH2)8)S[Abu(3R-Me,4-PO3H2)]
modifications: reading uncertain
notes: T0009: Z = CH2, G = Ph-(CH2)8-, R1 = PEG; also called Cys-PEG-4j* (bead-immobilized form)
binding result [9]: no binding

Ac-PLH(Ph‑(CH2)8)S[pT] (also called peptide 4j; Compound 4j) [4j (Biological Example 1)]
binding result [9]: no binding

LHS[pT] [LHSpT]
fold diminished binding relative to PLHSpT [10]: 7 fold | fold weaker binding than PLHSpT [11]: 50 fold

Ac-PPHS[pT] [PPHSpT]
fold diminished binding affinity [11]: 20 fold
